Experimental data published in PMC13316013, “Shared structural mechanisms of alternating access between the secondary peptide transporter SbmA and ABC transporters” (Nature Communications, 2026).
Blank lines part the entries; values can stand above or below the binder they belong to.

Legend:
SbmA [1] = target: T1, SbmA (Escherichia coli, UniProt P0AFY6); test: cryo-EM structure; SbmA in complex with Fab S11-1 in lipid nanodiscs (MSP1E3D1; DOPC:POPG:POPO-cardiolipin 13:4:1), SEC in 20 mM MES pH 5.5, 300 KCl; 300 kV; settings: both partners purified
T1 construct: SbmA, inner membrane peptide transporter of Escherichia coli, cloned from genomic DNA into pBXC3H; Homodimer; no cleavage is described; also called SbmA-like peptide transporter (SLiPT) family member; source: E. coli MC1061, purified (Nickel Sepharose, SEC) in DDM; for some samples reconstituted into MSP1E3D1 lipid nanodiscs

SbmA [2] = target: T1, SbmA; test: cryo-EM structure; SbmA incubated with SB2 in a 1:2 molar ratio, 30 min, 4 °C; complex purified by SEC in TBS pH 7.4, 0.05% DDM; 200 kV (Table 1 names lipid nanodiscs for identifier D); settings: both partners purified
SbmA [3] = target: T1, SbmA; test: as above; settings: both partners purified; remark: listed apart in the source
[4] = target: the molecule itself; test: cryo-EM structure; SbmA in complex with Fab S11-1 in lipid nanodiscs (MSP1E3D1; DOPC:POPG:POPO-cardiolipin 13:4:1), SEC in 20 mM MES pH 5.5, 300 KCl; 300 kV

stoichiometry N (SbmA [1]): 1 Fab per SbmA dimer
B1: Fab fragment Fab S11-1 (Fab, V domains shown)
VH: LKLLDSGAELVKPGASVKLSCTASGFNIKDTYMYWVKQRPDQGLEWIGRIDPANGNSKYDPKFQGKATITADTSSNTAYLQVSSLTSEDTAVYYCARWLVRGRRGTMDYWGQGTSVTVSS
VL: DIVMTQSPAILSASPGEKVTMTCRASSSVSYMHWYQQKPGSSPKPWIYATSNLASGVPARFSGSGSGTSYSLTISRVEAEDAATYYCQQWSSNPRTFGGGTKLEIK

stoichiometry N (SbmA [2]): 1 sybody per SbmA dimer | stoichiometry N (SbmA [3]): 2 Sb per SbmA dimer
B2: Sybody2 (VHH)
VHH: QVQLVESGGGLVQAGGSLRLSCAASGFPVIANVMYWYRQAPGKEREWVAAIDSSGEYAYYADSVKGRFTISRDNAKNTVYLQMNSLKPEDTAVYYCYVKVGSHYWGQGTQVTVSA
notes: synthetic nanobody (sybody, 16 kDa) selected against biotinylated SbmA T403C; also called SB2; Sb2

B3: SbmA (natural protein, Escherichia coli)
chain: MFKSFFPKPGTFFLSAFVWALIAVIFWQAGGGDWVARITGASGQIPISAARFWSLDFLIFYAYYIVCVGLFALFWFIYSPHRWQYWSILGTALIIFVTWFLVEVGVAVNAWYAPFYDLIQTALSSPHKVTIEQFYREVGVFLGIALIAVVISVLNNFFVSHYVFRWRTAMNEYYMANWQQLRHIEGAAQRVQEDTMRFASTLENMGVSFINAIMTLIAFLPVLVTLSAHVPELPIIGHIPYGLVIAAIVWSLMGTGLLAVVGIKLPGLEFKNQRVEAAYRKELVYGEDDATRATPPTVRELFSAVRKNYFRLYFHYMYFNIARILYLQVDNVFGLFLLFPSIVAGTITLGLMTQITNVFGQVRGAFQYLINSWTTLVELMSIYKRLRSFEHELDGDKIQEVTHTLS
notes: SbmA, inner membrane peptide transporter of Escherichia coli, cloned from genomic DNA into pBXC3H; Homodimer; no cleavage is described; also called SbmA-like peptide transporter (SLiPT) family member; source: E. coli MC1061, purified (Nickel Sepharose, SEC) in DDM; for some samples reconstituted into MSP1E3D1 lipid nanodiscs
stoichiometry N [4]: 2
